Consider two molecules from US11298402B2, “Lysosomal degradation of lipids and proteins and method of use thereof” (University of Ottawa, priority 2015, dated 2022).

Positions count from the first letter of the chain named. Numbers in names are those of the source.

For series [1], the system named is McA-RH7777 cells (A18-C3). The series can be described thus: Immuno-EM of Arl8b organellar association. In kind it is cell-based, rat. Conditions: RFP-tagged Arl8b in transfected cells, 1 h post-EPA. The procedure: For immunogold labeling, pellets of cells cultured in media containing OA or EPA (0.4 mM) were fixed with 0.5% glutaraldehyde and 4% paraformaldehyde in 0.1 M phosphate buffer (pH 7.4) and dehydrated through a series of graded ethanol dilutions, and embedded in LR White acrylic resin (London Resin Company). Ultrathin sections (80 nm) were placed on Formvar-coated nickel grids. For post-embedding immunolabeling, the sections were incubated with an anti-Arl8b antibody (Fitzgerald) for 1 h. For ^RFPArl8b-transfected cells, that primary antibody used was anti-RFP (Abcam). After washing with 0.2 M sodium cacodylate buffer containing 0.1% calcium chloride, pH 7.4, the samples were incubated with the secondary antibody conjugated with 10-nm gold particles. To increase contrast, the ultrathin sections were stained with 2% uranyl acetate for 6 min and Reynold's lead for 5 min. The grids were examined with a Tecnai 12 120 kV TEM as described above.

Another series deals with hepatic cells. Briefly: Prolonged oleate treatment (OA-induced steatosis) of hepatic cells. Conditions: for steatosis (CLD accumulation): oleate 0.4 mM for up to 3 days. In kind it is cell-based. The source says: FIG. 36 illustrates that the LD content in cells cultured under lipid-rich conditions may be manipulated by expression of different forms of Arl8b. Images in the top row show position of lysosomes in cells cultured in a lipid-rich medium (i.e. supplemented with oleate) for up to 4 days. After 1-day treatment with oleate, lysosomes (stained with LysoTracker, green) were accumulated in the perinuclear regions of cells. However after 2-day oleate treatment, lysosomes were relocated towards the LDs at cell periphery. The relocation of lysosomes from the perinuclear region toward cell periphery indicates perturbed lysosomal motility under oleate-treatment conditions, which leads to prolonged association of lysosomes with LDs. Accumulation/higher interaction of lysosomes on LDs became more pronounced after 3- and 4-day treatment with oleate, with clear rings of lysosomes around LDs. Expression of the GDP-bound form of Arl8b, or Arl8b^T34N (or Arl8b “DN”, dominant negative), protects hepatocytes from accumulation of LDs upon long-term treatment with oleate. Note that even after 3 days, cells expressing Arl8b “DN” were healthy and accumulated low numbers of LDs (middle row). In contrast, expression of the GTP-bound form of Arl8b, or Arl8b^Q75L (or Arl8b “DA”, dominant active), exacerbated accumulation of LDs in cells (images in the bottom row). In fact, the cells could not tolerate long-term treatment and started to die after day 2. This situation may be similar to that in advanced levels of fatty liver, which causes hepatocyte apoptosis;
In these cells, lysosomes were continuously in contact with CLD, indicative of stalled lysosomal motility. This persistent lysosomal interaction with CLDs (i.e. “kiss” without “run”) clearly indicates the interfered process of microautophagy and lack of a mechanism in the cells, after prolonged OA treatment, that facilitates dissociation of lysosomes from CLDs, blocking the engulfment process. Thus, phenotypically, accumulation of CLD in cells cultured in lipid-rich media (e.g. supplementation with 0.4 mM OA) is invariably associated with a compromised lysosomal motility (i.e. kiss-and-run).

Another series has as its system mice. The series can be described thus: High fat diet and PO gavage for 10 days (palm oil-induced NASH mouse model). In kind it is in vivo. Particulars: HFD and PO gavage 10 days; in comparison with Arl8b^Q75L-treated mice. The procedure: For comparison, control mice were treated with Adv-MG1022 (a vector expressing Arl8b^Q75L) and then subjected to HFD and PO gavage for 10 days. (A) provides visceral views, and liver morphology views, of Arl8b^Q75L and Arl8b^T34N-treated mice, showing enhanced resistance to fatty liver and fat accumulation in Arl8b^T34N-treated mice. (B) provides images of liver sections stained with Oil Red O from mice subjected to a high fat diet and PO gavage for 10 days followed by treatment with Adv-MG1023 vector expressing Arl8b^T34N. For comparison, images of liver sections stained with Oil Red O obtained from mice treated with Adv-MG1022 (a vector expressing Arl8b^Q75L) and then subjected to HFD and PO gavage for 10 days are also provided.
In FIG. 49, mice were subjected to a high fat diet and PO gavage for 10 days, followed by treatment with Adv-MG1023 vector expressing Arl8b^T34N. For comparison, mice were treated with Adv-MG1022 (a vector expressing Arl8b^Q75L; FIG. 46) and then subjected to HFD and PO gavage for 10 days. These experiments may be considered as palm oil-induced NASH mouse models. FIG. 49A provides visceral views, and liver morphology views, of Arl8b^Q75L and Arl8b^T34N-treated mice, showing enhanced resistance to fatty liver and fat accumulation in Arl8b^T34N-treated mice. […]

The subject of series [2] is HCV core protein expressing cells. Briefly: Imaging of HCV core protein expressing cells. In kind it is cell-based. The source says:
This may be because the presence of HCV core protein may “lock” lysosomes onto the LD surface during the lysosomal engulfment process, resulting in scattered distribution of lysosomes throughout the cell cytoplasm. This situation is similar to that observed in cells after prolonged treatment with oleate (see FIG. 36, top row). White arrows indicate HCV core protein (pseudo-colored in green) and lysosomes (LysoTracker; blue) in association with LDs;
FIG. 41 provides data illustrating the effect of Arl8b “DN” on HCV core distribution and interaction between lysosomes and lipid droplets.
As shown in HCV core protein expressing cells (FIG. 41, left panel), the HCV core proteins (GFP-tagged) are bound to CLDs. The core protein binding to the CLDs apparently renders persistent lysosomal interaction with CLDs (i.e. kiss without run) and thus impaired microautophagy. As explained with reference to FIG. 39, functional microautophagy includes proper lysosomal engulfment (Kiss) and termination of this process, via lysosomal “go”, “interact”, and “back” events. As detailed herein, by introducing a putative GDP-bound form or Arl8b (Arl8b^T34N) into the HCV core protein-expressing cells, microautophagy functionality may be restored (FIG. 41, right panel). […]

B1: Arl8b^T34N: putative GDP-bound, dominant negative Arl8b mutant (Thr-to-Asn at 34; SEQ ID NO: 12), expressed from plasmid or adenovirus Adv-MG1023; tagged forms used (protein)
chain: MLALISRLLDWFRSLFWKEEMELTLVGLQYSGKNTFVNVIASGQFSEDMIPTVGFNMRKVTKGNVTIKIWDIGGQPRFRSMWERYCRGVNAIVYMIDAADREKIEASRNELHNLLDKPQLQGIPVLVLGNKRDLPNALDEKQLIEKMNLSAIQDREICCYSISCKEKDNIDITLQWLIQHSKSRRS
modifications: GFP/RFP tags in some forms; T34N substitution, GDP-binding
notes: tagged forms used
Consider B1, for which the “organellar association (lysosome vs CLD)” value in series [1] is listed as “mainly CLD-borne”. In addition, the “steatosis (CLD accumulation)” value with hepatic cells is on record as “without indication of steatosis”. Further, in the series on mice, the “fatty liver disease arising from HFD” value is listed as “enhanced resistance to fatty liver disease”. Besides, in series [2], the “HCV core protein distribution on CLD” value is given as “displaced HCV core protein from the CLD surface” and the “lysosome association with LD surface” value was “effectively displace lysosomes from LD surface”.

B2: Arl8b^Q75L: putative GTP-bound, dominant active Arl8b mutant (Gln-to-Leu at 75; SEQ ID NO: 13), expressed from plasmid or adenovirus Adv-MG1022; tagged forms used (protein)
chain: B1 chain with N34T, Q75L
modifications: GFP/RFP tags in some forms; Q75L substitution, GTP-binding
notes: tagged forms used
Take B2: in series [1], the “organellar association (lysosome vs CLD)” value is reported as “predominately associated with lysosomes”. Further, in the series with hepatic cells (medium with 0.4 mM OA, 2-day incubation), the “cell survival under OA treatment” value was “most of the cells died”. Further, the “steatosis (CLD accumulation)” value with hepatic cells was “developed severe steatosis”.
